Test results taken from patent US20070031907A1, “Anaplastic lymphoma kinase assay, reagents and compositions thereof” (Istituto Nazionale Per Lo Studio E La Cura Dei Tumori, priority 2003, published 2007).

Substrate: CC[C@H](C)[C@H](NC(=O)[C@H](CC(=O)O)NC(=O)[C@H](CCCNC(=N)N)NC(=O)[C@H](C)N)C(=O)N[C@@H](Cc1ccc(O)cc1)C(=O)N[C@@H](CCCNC(=N)N)C(=O)N[C@@H](C)C(=O)N[C@@H](CO)C(=O)N[C@@H](Cc1ccccc1)C(=O)N[C@@H](Cc1ccccc1)C(=O)N[C@@H](CCCNC(=N)N)C(=O)N[C@@H](CCCCN)C(=O)NCC(=O)NCC(=O)N[C@@H](CS)C(=O)N[C@@H](C)C(=O)N[C@@H](CCSC)C(=O)N[C@@H](CC(C)C)C(=O)N1CCC[C@H]1C(=O)N[C@H](C(=O)N[C@@H](CCCCN)C(=O)O)C(C)C
Experiment: Peptide phosphorylation (radioactive assay) with rALK
Type: biochemical, human
Conditions: other: kinetic constants for rALK with synthetic peptides as substrate; pH 7.5; 30.0 °C
Description: The reactions were terminated after 10 min of incubation at 30° C. by spotting 25 μl of the mixture onto P81 phosphocellulose papers, which were processed as described elsewhere (1). Kinetic constants were determined by GraphPad Prism software fitting the data directly to the Michaelis-Menten equation using nonlinear regression.

B1: rALK (ALK catalytic domain, Leu1073 to Ala1459) (Homo sapiens) (protein)
chain: LQSPEYKLSKLRTSTIMTDYNPNYCFAGKTSSISDLKEVPRKNITLIRGLGHGAFGEVYEGQVSGMPNDPSPLQVAVKTLPEVCSEQDELDFLMEALIISKFNHQNIVRCIGVSLQSLPRFILLELMAGGDLKSFLRETRPRPSQPSSLAMLDLLHVARDIACGCQYLEENHFIHRDIAARNCLLTCPGPGRVAKIGDFGMARDIYRASYYRKGGCAMLPVKWMPPEAFMEGIFTSKTDTWSFGVLLWEIFSLGYMPYPSKSNQEVLEFVTSGGRMDPPKNCPGPVYRIMTQCWQHQPEDRPNFAIILERIEYCTQDPDVINTALPIEYGPLVEEEEKVPVRPKDPEGVPPLLVSQQAKREEERSPAAPPPLPTTSSGKAAKKPTAA
notes: A portion of ALK, stretching from amino acids Leu^1073 to Ala^1459, has been cloned into the baculovirus transfer vector; made in house; host or cells: Sf9 (Spodoptera frugiperda) insect cells, baculovirus (pBlueBacHis2C, MaxBac 2.0)
In the case of B1, the Km is reported as 109.4 µM and the Vmax is reported as 0.000186 µmol/min.
